Assay results from US20250171562A1 (ALK ABELL, published 2025).

B1: CIgG4E3A1(G4S)3 (Fc fusion)
chain 1: GPPCPPCPAPEFLGGPSVFLFPPKPKDTLMISRTPEVTCVVVDVSQEDPEVQFNWYVDGVEVHNAKTKPREEQFNSTYRVVSVLTVLHQDWLNGKEYKCKVSNKGLPSSIEKTISKAKGQPREPQVYTLPPCQEEMTKNQVSLWCLVKGFYPSDIAVEWESNGQPENNYKTTPPVLDSDGSFFLYSRLTVDKSRWQEGNVFSCSVMHEALHNHYTQKSLSLSLGKGGGGSGGGGSGGGGSDVQLQESGGGLVQAGGSLRLACAASGRTLSSYVVSWFRQAPGKERKFVAAITWSGLSTTYLDSVQGRFTISRDNTKDTVYLQMNSLKPQDTAIYYCAAGPNIPSILRTRESEYAYWGQGTQVTVS
chain 2: GPPCPPCPAPEFLGGPSVFLFPPKPKDTLMISRTPEVTCVVVDVSQEDPEVQFNWYVDGVEVHNAKTKPREEQFNSTYRVVSVLTVLHQDWLNGKEYKCKVSNKGLPSSIEKTISKAKGQPREPQVCTLPPSQEEMTKNQVSLSCAVKGFYPSDIAVEWESNGQPENNYKTTPPVLDSDGSFFLVSRLTVDKSRWQEGNVFSCSVMHEALHNHYTQKSLSLSLGKGGGGSGGGGSGGGGSEVQLLESGGGLVQPGGSLRLSCAASGFTFGNYDMAWVRQAPGKRPEWVSSIDTGGDITHYADSVKGRFTISRDNAKNTLYLQMNSLRPEDTAVYWCATDEEYALGPNEFDYYGQGTLVTVSS
B2: CIgG4E4A1(RS) (Fc fusion)
chain 1: GPPCPPCPAPEFLGGPSVFLFPPKPKDTLMISRTPEVTCVVVDVSQEDPEVQFNWYVDGVEVHNAKTKPREEQFNSTYRVVSVLTVLHQDWLNGKEYKCKVSNKGLPSSIEKTISKAKGQPREPQVYTLPPCQEEMTKNQVSLWCLVKGFYPSDIAVEWESNGQPENNYKTTPPVLDSDGSFFLYSRLTVDKSRWQEGNVFSCSVMHEALHNHYTQKSLSLSLGKRSDVQLQESGGGLVQPGGSLRLSCAASGFRFSNYAMRWYRQAPGKEREFVARISSTGFITRYTASVRDRFTISRDNDKNMMYLQLNKLTPQDTAHYYCNAESTDYWGQGTQVTVS
chain 2: GPPCPPCPAPEFLGGPSVFLFPPKPKDTLMISRTPEVTCVVVDVSQEDPEVQFNWYVDGVEVHNAKTKPREEQFNSTYRVVSVLTVLHQDWLNGKEYKCKVSNKGLPSSIEKTISKAKGQPREPQVCTLPPSQEEMTKNQVSLSCAVKGFYPSDIAVEWESNGQPENNYKTTPPVLDSDGSFFLVSRLTVDKSRWQEGNVFSCSVMHEALHNHYTQKSLSLSLGKRSEVQLLESGGGLVQPGGSLRLSCAASGFTFGNYDMAWVRQAPGKRPEWVSSIDTGGDITHYADSVKGRFTISRDNAKNTLYLQMNSLRPEDTAVYWCATDEEYALGPNEFDYYGQGTLVTVSS
B3: CIgG4E4A1(G4S)1 (Fc fusion)
chain 1: GPPCPPCPAPEFLGGPSVFLFPPKPKDTLMISRTPEVTCVVVDVSQEDPEVQFNWYVDGVEVHNAKTKPREEQFNSTYRVVSVLTVLHQDWLNGKEYKCKVSNKGLPSSIEKTISKAKGQPREPQVYTLPPCQEEMTKNQVSLWCLVKGFYPSDIAVEWESNGQPENNYKTTPPVLDSDGSFFLYSRLTVDKSRWQEGNVFSCSVMHEALHNHYTQKSLSLSLGKGGGGSDVQLQESGGGLVQPGGSLRLSCAASGFRFSNYAMRWYRQAPGKEREFVARISSTGFITRYTASVRDRFTISRDNDKNMMYLQLNKLTPQDTAHYYCNAESTDYWGQGTQVTVS
chain 2: GPPCPPCPAPEFLGGPSVFLFPPKPKDTLMISRTPEVTCVVVDVSQEDPEVQFNWYVDGVEVHNAKTKPREEQFNSTYRVVSVLTVLHQDWLNGKEYKCKVSNKGLPSSIEKTISKAKGQPREPQVCTLPPSQEEMTKNQVSLSCAVKGFYPSDIAVEWESNGQPENNYKTTPPVLDSDGSFFLVSRLTVDKSRWQEGNVFSCSVMHEALHNHYTQKSLSLSLGKGGGGSEVQLLESGGGLVQPGGSLRLSCAASGFTFGNYDMAWVRQAPGKRPEWVSSIDTGGDITHYADSVKGRFTISRDNAKNTLYLQMNSLRPEDTAVYWCATDEEYALGPNEFDYYGQGTLVTVSS
B4: CIgG4E4A1(G4S)2 (Fc fusion)
chain 1: GPPCPPCPAPEFLGGPSVFLFPPKPKDTLMISRTPEVTCVVVDVSQEDPEVQFNWYVDGVEVHNAKTKPREEQFNSTYRVVSVLTVLHQDWLNGKEYKCKVSNKGLPSSIEKTISKAKGQPREPQVYTLPPCQEEMTKNQVSLWCLVKGFYPSDIAVEWESNGQPENNYKTTPPVLDSDGSFFLYSRLTVDKSRWQEGNVFSCSVMHEALHNHYTQKSLSLSLGKGGGGSGGGGSDVQLQESGGGLVQPGGSLRLSCAASGFRFSNYAMRWYRQAPGKEREFVARISSTGFITRYTASVRDRFTISRDNDKNMMYLQLNKLTPQDTAHYYCNAESTDYWGQGTQVTVS
chain 2: GPPCPPCPAPEFLGGPSVFLFPPKPKDTLMISRTPEVTCVVVDVSQEDPEVQFNWYVDGVEVHNAKTKPREEQFNSTYRVVSVLTVLHQDWLNGKEYKCKVSNKGLPSSIEKTISKAKGQPREPQVCTLPPSQEEMTKNQVSLSCAVKGFYPSDIAVEWESNGQPENNYKTTPPVLDSDGSFFLVSRLTVDKSRWQEGNVFSCSVMHEALHNHYTQKSLSLSLGKGGGGSGGGGSEVQLLESGGGLVQPGGSLRLSCAASGFTFGNYDMAWVRQAPGKRPEWVSSIDTGGDITHYADSVKGRFTISRDNAKNTLYLQMNSLRPEDTAVYWCATDEEYALGPNEFDYYGQGTLVTVSS
B5: CIgG4E4A1(G4S)3 (Fc fusion)
chain 1: GPPCPPCPAPEFLGGPSVFLFPPKPKDTLMISRTPEVTCVVVDVSQEDPEVQFNWYVDGVEVHNAKTKPREEQFNSTYRVVSVLTVLHQDWLNGKEYKCKVSNKGLPSSIEKTISKAKGQPREPQVYTLPPCQEEMTKNQVSLWCLVKGFYPSDIAVEWESNGQPENNYKTTPPVLDSDGSFFLYSRLTVDKSRWQEGNVFSCSVMHEALHNHYTQKSLSLSLGKGGGGSGGGGSGGGGSDVQLQESGGGLVQPGGSLRLSCAASGFRFSNYAMRWYRQAPGKEREFVARISSTGFITRYTASVRDRFTISRDNDKNMMYLQLNKLTPQDTAHYYCNAESTDYWGQGTQVTVS
chain 2: B1 chain 2
B6: CIgG4F1A1(RS) (Fc fusion)
chain 1: GPPCPPCPAPEFLGGPSVFLFPPKPKDTLMISRTPEVTCVVVDVSQEDPEVQFNWYVDGVEVHNAKTKPREEQFNSTYRVVSVLTVLHQDWLNGKEYKCKVSNKGLPSSIEKTISKAKGQPREPQVYTLPPCQEEMTKNQVSLWCLVKGFYPSDIAVEWESNGQPENNYKTTPPVLDSDGSFFLYSRLTVDKSRWQEGNVFSCSVMHEALHNHYTQKSLSLSLGKRSDVQLQESGGGLVQAGGSLKLSCAASGGSLSRYDMGWFRQAPGKEREFVARISWSGTTKYYADAVKGRFAISRDNAKNTVYLQMNSLKPEDTAVYYCAAAFYGNRGYYDVNAYTSSGQGTQVTVS
chain 2: B2 chain 2

Molecular target: T1, recombinant human IgE (human, UniProt P01854-1 1-428)
T1 construct: made in-house (ALK); preloaded on immobilised FcεRIα in the displacement ELISA
Assay: IgE-FcεRIα displacement ELISA
Method in brief: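 sdAbs at pM–μM were incubated 1 h on preformed complexes of 13 ng/ml recombinant human IgE with avi-tag-biotinylated human FcεRIα captured on streptavidin.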

T1 sequence (P01854 other isoform, or with tags, fused parts or gaps): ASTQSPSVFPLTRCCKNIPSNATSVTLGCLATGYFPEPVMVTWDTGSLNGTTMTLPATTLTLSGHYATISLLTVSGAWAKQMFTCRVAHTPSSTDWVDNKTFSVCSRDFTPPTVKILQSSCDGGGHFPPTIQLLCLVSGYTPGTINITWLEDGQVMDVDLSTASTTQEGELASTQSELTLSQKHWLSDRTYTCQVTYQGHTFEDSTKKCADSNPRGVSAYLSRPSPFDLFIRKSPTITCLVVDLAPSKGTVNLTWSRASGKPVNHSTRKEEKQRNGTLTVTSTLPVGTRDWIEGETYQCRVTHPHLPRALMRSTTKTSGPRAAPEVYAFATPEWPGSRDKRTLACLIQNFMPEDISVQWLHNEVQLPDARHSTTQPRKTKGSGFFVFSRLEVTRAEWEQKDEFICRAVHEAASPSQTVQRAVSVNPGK

Row | Binder | EC50 [nM] | Max effect [%]
1 | B1 | 36 | 90
2 | B2 |  | 40
3 | B3 | 130 | 85
4 | B4 | 48 | 90
5 | B5 | 22 | 95
6 | B6 |  | 0
